Assay [1] has as its target Pea seed ferritin purified from pea seed milk boiled for 5 min (Pisum sativum (pea)). Nature of the assay: native gel or EMSA; Native-PAGE, 5-20% gradient gel, samples not boiled, 180 V, 4 °C, Coomassie brilliant blue R-250; assembly state of the purified ferritin. A general note: In EMSA bound probe runs differently from free probe, usually more slowly.
Assay [2] concerns the target Pea seed ferritin purified from pea seed milk boiled for 10 min (Pisum sativum (pea)). Described as above.

B1: Pea seed ferritin purified from pea seed milk boiled for 5 min (natural protein)
chain: TTAPLTGVIFEPFEEVKKDYLAVPSVPLVSLARQNFADECESVINEQINVEYNASYVYHSLFAYFDRDNVALKGFAKFFKESSEEHREHAEKLMKYQNTRGGRVVLHPIKDVPSEFEHVEKGDALYAMELALSLEKLTNEKLLNVHSVAERNNDLEMTHFIEGEYLAEQVEAIKKISEYVAQLRRVGKGHGVWHFDQRLLHGVHGA
modifications: not checked
In assay [1], B1 showed a stoichiometry N of 24.

B2: Pea seed ferritin purified from pea seed milk boiled for 10 min (natural protein)
chain: TTAPLTGVIFEPFEEVKKDYLAVPSVPLVSLARQNFADECESVINEQINVEYNASYVYHSLFAYFDRDNVALKGFAKFFKESSEEHREHAEKLMKYQNTRGGRVVLHPIKDVPSEFEHVEKGDALYAMELALSLEKLTNEKLLNVHSVAERNNDLEMTHFIEGEYLAEQVEAIKKISEYVAQLRRVGKGHGVWHFDQRLLHGVHGA
modifications: not checked
The molecule B2 returned a stoichiometry N in assay [2] of 24.

A word on the stoichiometry N: it is the number of molecules, sites or subunits per partner or assembly.

The values above are taken from PMC8871097.
